Assay results: article PMC11892807

Key:
[1] = target: CA(A14C/E45C/W184A/M185A) (HIV-1); experiment: mass photometry; no ligand added; 2 uL of sample into 18 uL buffer, 60 s at 331 Hz; unliganded WT CA and pre-formed cross-linked pentamers and hexamers as controls
[2] = target: CA(A14C/E45C/W184A/M185A) (HIV-1); experiment: cross-linking; as the DMSO reaction, but 2 uM LEN pre-incubated with monomeric CA (1 uM) before concentration to 125 uM and sequential dialysis out of beta-mercaptoethanol; products on SDS-PAGE
[3] = target: CA(A14C/E45C/W184A/M185A) (HIV-1); experiment: cross-linking; disulfide cross-linking of monomeric CA with DMSO, by sequential dialysis out of beta-mercaptoethanol at 4 C (final 20 mM Tris-HCl pH 8, 40 mM NaCl, no reducing agent); products on SDS-PAGE; legend: 1 uM CA, methods: diluted to 1 uM, then concentrated to 125 uM
[4] = target: CA(N21C/A22C/W184A/M185A) (HIV-1); experiment: mass photometry; no ligand added; 2 uL of sample into 18 uL buffer, 60 s at 331 Hz; unliganded WT CA and pre-formed cross-linked pentamers and hexamers as controls
[5] = target: CA(N21C/A22C/W184A/M185A) (HIV-1); experiment: cross-linking; disulfide cross-linking of monomeric CA with DMSO, by sequential dialysis out of beta-mercaptoethanol at 4 C (final 20 mM Tris-HCl pH 8, 40 mM NaCl, no reducing agent); products on SDS-PAGE; legend: 1 uM CA, methods: diluted to 1 uM, then concentrated to 125 uM

Substance | stoichiometry N [1] | stoichiometry N [2] | stoichiometry N [3] | stoichiometry N [4] | stoichiometry N [5]
CA(A14C/E45C/W184A/M185A) (natural protein) | 6 | 6 | 6 | – | –
CA(N21C/A22C/W184A/M185A) (natural protein) | – | – | – | 5 | 5
